US20210198341A1 (published 2021)

Experiments:
Experiment in all cases: cytokine release
[1] = target: T1, HPV18-E7 peptide on HLA-DPA1*01:03 / HLA-DPB1*02:01 (human)
T1 peptide: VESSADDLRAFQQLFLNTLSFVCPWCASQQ

[2] = target: T2, HPV18-E7 peptide on HLA-DPA1*02:02 / HLA-DPB1*05:01 (human)
T2 peptide: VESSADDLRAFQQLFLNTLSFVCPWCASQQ

[3] = target: T3, RGS5 peptide on HLA-DRA / HLA-DRB4*01:03 (human)
T3 peptide: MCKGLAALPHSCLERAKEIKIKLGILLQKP

[4] = target: T4, RGS5 peptide on HLA-DRA / HLA-DRB1*09:01 (human)
T4 peptide: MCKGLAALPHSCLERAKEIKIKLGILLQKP

[5] = target: T5, HPV18-E7 peptide on HLA-DRA / HLA-DRB4*01:03 (human)
T5 peptide: RAFQQLFLNTLSFVCPWCA

[6] = target: T6, HPV18-E7 peptide on HLA-DRA / HLA-DRB1*09:01 (human)
T6 peptide: RAFQQLFLNTLSFVCPWCA

[7] = target: T7, RGS5 peptide on HLA-DRA / HLA-DRB4*01:03 (human)
T7 peptide: AKEIKIKLGILLQKP

[8] = target: T8, RGS5 peptide on HLA-DRA / HLA-DRB1*09:01 (human)
T8 peptide: AKEIKIKLGILLQKP

B1: 33D05 (TCR, V domains shown)
Valpha: AQSVTQLDSHVSVSEGTPVLLRCNYSSSYSPSLFWYVQHPNKGLQLLLKYTSAATLVKGINGFEAEFKKSETSFHLTKPSAHMSDAAEYFCVVSAIGYSSASKIIFGSGTRLSIRP
Vbeta: DTGVSQNPRHKITKRGQNVTFRCDPISEHNRLYWYRQTLGQGPEFLTYFQNEAQLEKSRLLSDRFSAERPKGSFSTLEIQRTEQGDSAMYLCASSLVAGGPAETQYFGPGTRLLVL
[1]
  binding result: recognises
[2]
  binding result: recognises

B2: 09E01 (TCR, V domains shown)
Valpha: GQQVMQIPQYQHVQEGEDFTTYCNSSTTLSNIQWYKQRPGGHPVFLIQLVKSGEVKKQKRLTFQFGEAKKNSSLHITATQTTDVGTYFCAGPGNQFYFGTGTSLTVIP
Vbeta: NAGVTQTPKFQVLKTGQSMTLQCAQDMNHEYMSWYRQDPGMGLRLIHYSVGAGITDQGEVPNGYNVSRSTTEDFPLRLLSAAPSQTSVYFCASSSWDRDQPQHFGDGTRLSIL
[3]
  binding result: recognises
[4]
  binding result: recognises

B3: 10F04 (TCR, V domains shown)
Valpha: QKEVEQDPGPLSVPEGAIVSLNCTYSNSAFQYFMWYRQYSRKGPELLMYTYSSGNKEDGRFTAQVDKSSKYISLFIRDSQPSDSATYLCAMSPRSGYALNFGKGTSLLVTP
Vbeta: DGGITQSPKYLFRKEGQNVTLSCEQNLNHDAMYWYRQDPGQGLRLIYYSQIVNDFQKGDIAEGYSVSREKKESFPLTVTSAQKNPTAFYLCASSMDAALGEKLFFGSGTQLSVL
[5]
  binding result: recognises
[6]
  binding result: recognises

B4: 09D01 (TCR, V domains shown)
Valpha: RKEVEQDPGPFNVPEGATVAFNCTYSNSASQSFFWYRQDCRKEPKLLMSVYSSGNEDGRFTAQLNRASQYISLLIRDSKLSDSATYLCVVNMRDSSYKLIFGSGTRLLVRP
Vbeta: GAVVSQHPSRVICKSGTSVKIECRSLDFQATTMFWYRQFPKKSLMLMATSNEGSKATYEQGVEKDKFLINHASLTLSTLTVTSAHPEDSSFYICSAHERITDTQYFGPGTRLTVL
[7]
  binding result: recognises
[8]
  binding result: recognises

B5: 09H05 (TCR, V domains shown)
Valpha: RKEVEQDPGPFNVPEGATVAFNCTYSNSASQSFFWYRQDCRKEPKLLMSVYSSGNEDGRFTAQLNRASQYISLLIRDSKLSDSATYLCVVNMKDSSYKLIFGSGTRLLVRP
Vbeta: GAVVSQHPSRVICKSGTSVKIECRSLDFQATTMFWYRQFPKKSLMLMATSNEGSKATYEQGVEKDKFLINHASLTLSTLTVTSAHPEDSSFYICSALEGTSGKETQYFGPGTRLLVL
[7]
  binding result: recognises
[8]
  binding result: recognises
